Reference: patent US20230322953A1 (HARBOUR BIOMED SHANGHAI, published 2023)

Legend:
[1] = biological target: T1, human PD-L1 (programmed death ligand 1) (human, UniProt Q9NZQ7 19-290); assay: flow cytometry (FACS) on CHO-K1/hPDL1 cells, Experiment 2
T1 construct: whole, on cells; also called hPDL1; CD274

cynomolgus monkey 4-1BB [2] = biological target: T2, cynomolgus monkey 4-1BB (cynomolgus monkey); assay: flow cytometry (FACS) on CHO-K1/cyno 4-1BB cells, Experiment 2
T2 construct: whole, on cells; also called cyno 4-1BB

cynomolgus monkey 4-1BB [3] = biological target: T2, cynomolgus monkey 4-1BB; assay: flow cytometry (FACS) on CHO-K1/cyno 4-1BB cells, Experiment 1
[4] = biological target: T3, human CTLA4 on CHO-K1/hCTLA4 cells (human, UniProt P16410 36-223); assay: flow cytometry on CHO-K1/hCTLA4 cells, Experiment 1
T3 construct: whole, on cells; CHO-K1 cell line highly expressing human CTLA4; also called human CTLA4 cell

[5] = biological target: T3, human CTLA4 on CHO-K1/hCTLA4 cells; assay: flow cytometry on CHO-K1/hCTLA4 cells, Experiment 2
[6] = biological target: T3, human CTLA4 on CHO-K1/hCTLA4 cells; assay: flow cytometry on CHO-K1/hCTLA4 cells, Experiment 3
[7] = biological target: T4, biotinylated human CTLA4-Fc protein (ACRO Biosystems, #CT4-H82F3) (human, UniProt P16410 36-161, biotinylated); assay: competition ELISA: coated human B7-1-Fc, biotinylated human CTLA4-Fc, Experiment 1
T4 construct: Bought protein; also called human CTLA4 protein

[8] = biological target: T4, biotinylated human CTLA4-Fc protein …; assay: competition ELISA: coated human B7-1-Fc, biotinylated human CTLA4-Fc, Experiment 2
[9] = biological target: T3, human CTLA4 on CHO-K1/hCTLA4 cells; assay: flow cytometry competition: biotinylated human B7-1-Fc on CHO-K1/hCTLA4 cells, Experiment 1
[10] = biological target: T3, human CTLA4 on CHO-K1/hCTLA4 cells; assay: flow cytometry competition: biotinylated human B7-1-Fc on CHO-K1/hCTLA4 cells, Experiment 2
[11] = biological target: T5, human CTLA4-His protein (ACRO Biosystems, #CT4-H5229) (human, UniProt P16410 36-161); assay: ELISA, coated hCTLA4-His
T5 construct: extracellular domain; bought; also called hCTLA4-His; human CTLA4 extracellular domain recombinant protein

[12] = biological target: T5, human CTLA4-His protein (ACRO …); assay: ELISA, coated hCTLA4-His; remark: listed apart in the source
[13] = biological target: T6, human PD-L1-His protein (ACRO Biosystems, #PD1-H5229) (human, UniProt Q9NZQ7 19-238); assay: ELISA, coated hPD-L1-His
T6 construct: extracellular domain; bought; also called hPDL1-His; human PD-L1 extracellular domain recombinant protein

[14] = biological target: T7, human CTLA4 on cells (CHO-K1/hCTLA4; HEK293/hCTLA4; 293F-hCTLA4) (human, UniProt P16410 36-223); assay: FACS, CHO-K1/hCTLA4 cells (Test 1)
T7 construct: whole, on cells

[15] = biological target: T8, human PD-L1 on cells (CHO-K1/hPDL1; MDA-MB-231) (human, UniProt Q9NZQ7 19-290); assay: FACS, CHO-K1/hPDL1 cells (Experiment 1)
T8 construct: whole, on cells

[16] = biological target: T9, biotinylated human CTLA4-Fc protein (ACRO Biosystems, #CT4-H82F3) (human, UniProt P16410 36-161, biotinylated); assay: competition ELISA: biotinylated hCTLA4-Fc to coated B7-1-Fc
T9 construct: bought; also called human CTLA4 protein

[17] = biological target: T7, human CTLA4 on cells (CHO-K1/hCTLA4; …); assay: competition FACS: biotinylated B7-1-Fc to CHO-K1/hCTLA4 cells (Test 1)
[18] = biological target: T8, human PD-L1 on cells (CHO-K1/hPDL1; …); assay: competition FACS: biotinylated PD-1 to CHO-K1/hPDL1 cells (Experiment 1)
[19] = biological target: T1, human PD-L1 (programmed death ligand 1); assay: flow cytometry (FACS) on CHO-K1/hPDL1 cells, Experiment 1
[20] = biological target: T1, human PD-L1 (programmed death ligand 1); assay: flow cytometry (FACS) on CHO-K1/hPDL1 cells, Experiment 3
[21] = biological target: T7, human CTLA4 on cells (CHO-K1/hCTLA4; …); assay: competition FACS: biotinylated B7-1-Fc to CHO-K1/hCTLA4 cells
human 4-1BB = biological target: T10, human 4-1BB (human, UniProt Q07011 24-255); assay: flow cytometry, CHO-K1/hu 4-1BB cells
T10 construct: whole, on cells; also called CD137; TNFRSF9

[22] = biological target: T9, biotinylated human CTLA4-Fc protein …; assay: competition ELISA: biotinylated hCTLA4-Fc to coated B7-1-Fc; remark: listed apart in the source

B1: PR004270, PD-L1×4-1BB bispecific antibody molecule of Fab-HCAb symmetric structure (bispecific antibody, human IgG1)
chain 1: EVQLVESGGGLVQPGGSLRLSCAASGFTFSSYWMSWVRQAPGKGLEWVANIKQEGSEKYYVDSVKGRFTISRDNAKNSLYLQMNSLRAEDTAVYYCARDRAVAGAFDIWGQGTMVTVSSASTKGPSVFPLAPSSKSTSGGTAALGCLVKDYFPEPVTVSWNSGALTSGVHTFPAVLQSSGLYSLSSVVTVPSSSLGTQTYICNVNHKPSNTKVDKKVEPKSC
chain 2: not shown
notes: Structure 1 Fab(CL)-VH-Fc; Fab of PR000265, VH of PR001760; linker H1_15, human IgG1 hinge (C220S); human IgG1 (L234A, L235A)
[1]
  EC50: 0.963 nM
Cynomolgus monkey 4-1BB [2]
  EC50: 1.55 nM

B2: Anti-4-1BB monoclonal antibody utomilumab analog, hIgG2 (antibody, V domains shown)
VH: EVQLVQSGAEVKKPGESLRISCKGSGYSFSTYWISWVRQMPGKGLEWMGKIYPGDSYTNYSPSFQGQVTISADKSISTAYLQWSSLKASDTAMYYCARGYGIFDYWGQGTLVTVSS
VL: SYELTQPPSVSVSPGQTASITCSGDNIGDQYAHWYQQKPGQSPVLVIYQDKNRPSGIPERFSGSNSGNTATLTISGTQAMDEADYYCATYTGFGSLAVFGGGTKLTVLG
notes: tied to PR000483 by the list of control molecules; also called PR000483
Cynomolgus monkey 4-1BB [3]
  EC50: 0.347 nM
  Maximum MFI: 5390 MFI
Cynomolgus monkey 4-1BB [2]
  EC50: 0.337 nM

B3: Anti-CTLA4 heavy-chain antibody CL5v3, hIgG1 (antibody, V domains shown)
VH: EVQLVESGGGLIQPGGSLRLSCAVSGFTVSKNYMSWVRQAPGKGLEWVSVVYSGGSKTYADSVKGRFTISRDNSKNTLYLQMNSLRAEDTAVYYCARAVPHSPSSFDIWGQGTMVTVSS
notes: Heavy-chain-only antibody (HCAb), no light chain; parent of the CTLA4 end of the HER2xCTLA4 bispecifics; also called PR000184
[4]
  EC50: 1.59 nM
  Maximum MFI: 214 MFI
[5]
  EC50: 1.79 nM
  Maximum MFI: 1080 MFI
[6]
  EC50: 3.05 nM
[7]
  IC50: 2.46 nM
[8]
  IC50: 1.69 nM
[9]
  IC50: 1.69 nM
  Maximum inhibition rate: 99.6%
[10]
  IC50: 0.239 nM

B4: PR000303 (bispecific antibody, human IgG1, kappa)
light: DIQMTQSPSTLSASVGDRVTVTCRASQSIYIWLAWYQQKPGKAPNLLIYKASSLETGVPSRFSGSGSGTEFTLTISSLQPDDFATYYCQQYYGSSRTFGQGTKVEIKRTVAAPSVFIFPPSDEQLKSGTASVVCLLNNFYPREAKVQWKVDNALQSGNSQESVTEQDSKDSTYSLSSTLTLSKADYEKHKVYACEVTHQGLSSPVTKSFNRGEC
chain: not shown
[11]
  fold poorer EC50 than PR000184: 2.6 fold
[12]
  EC50: 1.57 nM
  Maximum OD450: 2.72 OD450
[13]
  EC50: 0.241 nM
  Maximum OD450: 3.52 OD450
[14]
  EC50: 4.36 nM
  Maximum MFI: 2040 MFI
[15]
  EC50: 0.848 nM
  Maximum MFI: 18000 MFI
[16]
  IC50: 4.12 nM
  Maximum inhibition rate (%): 97.3%
[17]
  IC50: 9.71 nM
  Maximum inhibition rate (%): 83.3%
[18]
  IC50: 0.695 nM
  Maximum inhibition rate (%): 95.9%

B5: Anti-PD-L1 91G3H5H3 (D54E), hIgG1 (N297A) (antibody)
light: B4 light
heavy: not shown
notes: hIgG1 (N297A); also called PR000265
[19]
  EC50: 0.781 nM
  Maximum MFI: 2000 MFI
[1]
  EC50: 0.356 nM
[20]
  EC50: 1.56 nM
  Maximum MFI: 47000 MFI

B6: PR002672 (bispecific antibody)
chain 1: not shown
chain 2: not shown
chain 3: EVQLVESGGGLIQPGGSLRLSCAVSGFTVSKNYMSWVRQAPGKGLEWVSVVYSGGSKTYADSVKGRFTISRDNSKNTLYLQMNSLRAEDTAVYYCARAVPHSPSSFDIWGQGTMVTVSSGGGGSEVQLVESGGGLIQPGGSLRLSCAVSGFTVSKNYMSWVRQAPGKGLEWVSVVYSGGSKTYADSVKGRFTISRDNSKNTLYLQMNSLRAEDTAVYYCARAVPHSPSSFDIWGQGTMVTVSSEPKSSDKTHTCPPCPAPELLGGPDVFLFPPKPKDTLMISRTPEVTCVVVDVSHEDPEVKFNWYVDGVEVHNAKTKPREEQYNSTYRVVSVLTVLHQDWLNGKEYKCKVSNKALPAPEEKTISKAKGQPREPQVCTLPPSREEMTKNQVSLSCAVKGFYPSDIAVEWESNGQPENNYKTTPPVLDSDGSFFLVSKLTVDKSRWQQGNVFSCSVMHEALHNHYTQKSLSLSPGK
notes: HER2×CTLA4, structure 18 Fab(cross Fd/LC)-Fc-VH-VH
[21]
  fold poorer IC50 than the parent monoclonal antibody: ~4 fold

B7: HER2xCTLA4 bispecific antibody molecule PR002672 (bispecific antibody, human IgG1)
chain 1: not shown
chain 2: not shown
chain 3: B6 chain 3
notes: Structure 18 Fab(cross Fd/LC)-Fc-VH-VH (trivalent asymmetric); PR000210 Fab, two PR000184 VH in tandem, linker GS_5
[6]
  EC50: 2.79 nM
[10]
  IC50: 0.983 nM

B8: PR001760, anti-4-1BB heavy-chain antibody 1016P0011G10, hIgG1 (antibody, V domains shown)
VH: EVQLVESGGGVVQPGGSLRLSCAASGFTFSNYAMTWVRQAPEKGLEWVSSISGSGVSTYYADSVKGRFTISRDNSKNTLYLQMTRLTAEDTAVYFCAKEGSSETDDHYYNVDVWGQGTTVTVSS
notes: Heavy-chain-only antibody (HCAb), no light chain
Human 4-1BB
  EC50: 3.76 nM
  Maximum MFI: 83600

B9: PR000302 (bispecific antibody, human IgG1, kappa)
chain: DIQMTQSPSTLSASVGDRVTVTCRASQSIYIWLAWYQQKPGKAPNLLIYKASSLETGVPSRFSGSGSGTEFTLTISSLQPDDFATYYCQQYYGSSRTFGQGTKVEIKRTVAAPSVFIFPPSDEQLKSGTASVVCLLNNFYPREAKVQWKVDNALQSGNSQESVTEQDSKDSTYSLSSTLTLSKADYEKHKVYACEVTHQGLSSPVTKSFNRGECEPKSSDKTHTPPPPPEVQLVESGGGLIQPGGSLRLSCAVSGFTVSKNYMSWVRQAPGKGLEWVSVVYSGGSKTYADSVKGRFTISRDNSKNTLYLQMNSLRAEDTAVYYCARAVPHSPSSFDIWGQGTMVTVSS
heavy: not shown
[12]
  EC50: 10.6 nM
  Maximum OD450: 3.55 OD450
[13]
  EC50: 0.152 nM
  Maximum OD450: 3.54 OD450
[14]
  EC50: 26.1 nM
  Maximum MFI: 1570 MFI
[15]
  EC50: 0.737 nM
  Maximum MFI: 18600 MFI
[22]
  fold weaker IC50 than PR000184: 4 fold
[16]
  IC50: 11.6 nM
  Maximum inhibition rate (%): 98.9%
[17]
  IC50: 71.2 nM
  Maximum inhibition rate (%): 49%
[18]
  IC50: 0.64 nM
  Maximum inhibition rate (%): 96.7%
